Test results taken from WO2010106812A1 (dated 2010).

B1: TOCILIZUMAB-M58 (antibody, IgG2)
heavy: QVQLQESGPGLVRPSQTLSLTCTVSGYSITSDHAWSWVRQPPGRGLEWIGYISYSGITTYNPSLKSRVTMLRDTSKNQFSLRLSSVTAADTAVYYCARSLARTTAMDYWGQGSLVTVSSASTKGPSVFPLAPSSKSTSGGTAALGCLVKDYFPEPVTVSWNSGALTSGVHTFPAVLQSSGLYSLSSVVTVPSSNFGTQTYTCNVDHKPSNTKVDKTVERKSCVECPPCPAPPVAGPSVFLFPPKPKDTLMISRTPEVTCVVVDVSQEDPEVQFNWYVDGVEVHNAKTKPREEQFNSTFRVVSVLTVVHQDWLNGKEYKCKVSNKGLPAPIEKTISKTKGQPREPQVYTLPPSQEEMTKNQVSLTCLVKGFYPSDIAVEWESNGQPENNYKTTPPMLDSDGSFFLYSKLTVDKSRWQEGNVFSCSVMHEALHNHYTQKSLSLSP
light: not shown
notes: IgG2-derived constant region (WT-SKSC with further changes, Gly446 and Lys447 deleted); also called WT-M58/WT-kappa
B2: TOCILIZUMAB-M73 (antibody)
heavy: QVQLQESGPGLVRPSQTLSLTCTVSGYSITSDHAWSWVRQPPGRGLEWIGYISYSGITTYNPSLKSRVTMLRDTSKNQFSLRLSSVTAADTAVYYCARSLARTTAMDYWGQGSLVTVSSASTKGPSVFPLAPSSKSTSGGTAALGCLVKDYFPEPVTVSWNSGALTSGVHTFPAVLQSSGLYSLSSVVTVPSSNFGTQTYTCNVDHKPSNTKVDKTVERKSCVECPPCPAPPVAGPSVFLFPPKPKDTLMISRTPEVTCVVVDVSQEDPEVQFNWYVDGVEVHNAKTKPREEQFNSTFRVVSVLTVVHQDWLNGKEYKCKVSNKGLPAPIEKTISKTKGQPREPQVYTLPPSQEEMTKNQVSLTCLVKGFYPSDIAVEWESNGQPENNYKTTPPMLDSDGSFFLYSKLTVDKSRWQEGNVFSCSVMHEALHAHYTQKSLSLSP
light: not shown
notes: WT-M58 with asparagine 434 (EU) changed to alanine; also called WT-M73/WT-kappa

Molecular target: T1, soluble human FcRn (human, UniProt P55899 24-290; P61769 21-119)
T1 construct: Complex of FcRn and beta 2-microglobulin; the secreted protein lacks them
T1 sequence (P55899 24-290 limits assumed, chain 1 of 2): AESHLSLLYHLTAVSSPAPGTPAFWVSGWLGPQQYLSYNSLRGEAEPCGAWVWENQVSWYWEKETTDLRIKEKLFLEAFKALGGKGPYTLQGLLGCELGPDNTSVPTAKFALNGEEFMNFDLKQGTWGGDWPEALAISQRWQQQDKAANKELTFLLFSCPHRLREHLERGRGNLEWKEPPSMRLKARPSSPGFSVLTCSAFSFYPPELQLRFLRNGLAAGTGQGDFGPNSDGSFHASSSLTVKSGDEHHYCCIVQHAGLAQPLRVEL
T1 sequence (P61769 21-119 limits assumed, chain 2 of 2): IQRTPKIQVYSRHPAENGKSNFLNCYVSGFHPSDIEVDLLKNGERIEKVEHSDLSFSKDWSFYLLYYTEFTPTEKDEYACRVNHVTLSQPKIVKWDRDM
Assay: Biacore, human FcRn

Row | Binder | fold binding against TOCILIZUMAB-IgG1 [times]
1 | B1 | ~1.4
2 | B2 | ~3.8
